Experiments:
rat NiG-D6 = biological target: T1, rat NiG-D6 (rat, UniProt Q9JK11 763-975); assay: ELISA, fragment coated on plate
T1 construct: pET28 construct from bacteria
T1 sequence: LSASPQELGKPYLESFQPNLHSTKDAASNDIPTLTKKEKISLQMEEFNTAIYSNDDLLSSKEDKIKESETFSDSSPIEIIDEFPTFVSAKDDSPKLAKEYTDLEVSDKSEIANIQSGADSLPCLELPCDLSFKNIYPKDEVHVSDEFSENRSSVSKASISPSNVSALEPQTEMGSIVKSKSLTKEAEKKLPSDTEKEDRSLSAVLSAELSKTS
Protocol: (§1) Greiner 96 well PS plates (#655161) are coated with 0.4-2 ug/ml Nogo protein fragments in PBS (100ul/well) covered and incubated 4 hours at room temperature. Plates are flicked and refilled with 200 ul/well blocking buffer (PBS+2% BSA), covered and incubated. 1 h at RT or overnight at 4° C., then washed 4 times with water and PBS. Different concentrations of mouse 11C7 mAb or 11C7 Fab are diluted in PBS+2% BSA (100 u/well), and incubated 2 h at RT or overnight at 4° C. Wash step is repeated and Goat anti-mouse IgG conjugated with horse radish peroxidase (HRP) at a dilution of 1:5000 (ICN #55550) in PBS/0.1% BSA/0.1% Nonidet 40 (100 uVwell) is added and incubated. 2h at RT or overnight at 4° C. and wash step is repeated. HRP reaction is started by adding 100 uvwell BM blue POD (Roche #1484281) and incubafed in the dark at RT for 15 minutes. H2SO4 50 ul/well 1 M is added to stop HRP substrate reaction and the optical density is determinated using a microplate reader (Packard Spectra Count) set to 450 nm.

Nogo-66 = biological target: T2, Nogo-66 (rat, UniProt Q9JK11 1019-1083); assay: ELISA, fragment coated on plate
T2 construct: also called Nogo-66 fragment
T2 sequence: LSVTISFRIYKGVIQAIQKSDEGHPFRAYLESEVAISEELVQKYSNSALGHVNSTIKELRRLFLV
Protocol: as §1

human NiG [1] = biological target: T3, human NiG (human, UniProt Q9NQC3 186-1004); assay: SPR (BIAcore 2000), NiG amine-coupled on CM5 chip, antibody injected
T3 construct: Expressed in E. coli from pET28a-hNiG; also called hNiG; recombinant human NIG; not shown: N-terminal His- and T7-tag from pET28a
T3 sequence: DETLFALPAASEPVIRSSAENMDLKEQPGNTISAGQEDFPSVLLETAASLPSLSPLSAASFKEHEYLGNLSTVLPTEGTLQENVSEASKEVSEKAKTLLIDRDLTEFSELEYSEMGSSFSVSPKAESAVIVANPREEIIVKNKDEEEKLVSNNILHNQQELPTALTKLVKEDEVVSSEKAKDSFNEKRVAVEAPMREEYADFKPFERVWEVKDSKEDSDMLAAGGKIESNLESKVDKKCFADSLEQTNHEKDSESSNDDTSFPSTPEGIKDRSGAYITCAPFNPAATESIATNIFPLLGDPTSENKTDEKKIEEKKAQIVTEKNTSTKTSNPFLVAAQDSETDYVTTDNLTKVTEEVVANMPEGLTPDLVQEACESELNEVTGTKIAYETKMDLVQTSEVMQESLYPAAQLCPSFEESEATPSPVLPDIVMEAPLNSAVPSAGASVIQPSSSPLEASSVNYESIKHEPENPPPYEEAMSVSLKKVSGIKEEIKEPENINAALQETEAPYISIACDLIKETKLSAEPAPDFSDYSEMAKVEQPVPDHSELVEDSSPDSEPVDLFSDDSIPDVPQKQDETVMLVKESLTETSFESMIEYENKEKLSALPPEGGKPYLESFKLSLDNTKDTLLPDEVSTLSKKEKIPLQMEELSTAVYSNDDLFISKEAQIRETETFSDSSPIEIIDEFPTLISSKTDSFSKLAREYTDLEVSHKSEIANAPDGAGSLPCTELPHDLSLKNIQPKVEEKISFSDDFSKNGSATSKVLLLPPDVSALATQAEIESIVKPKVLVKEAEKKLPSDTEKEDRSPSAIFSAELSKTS
Protocol: (§2) The affinity of the mouse 11C7 mAb and of the 11C7 Fab are measured by surface plasmon resonance (SPR) using a BIAcore 2000 optical biosensor (Biacore, Uppsala, Sweden) according to the manufacture's instructions (see FIG. 2). Recombinant human, mouse, and rat NIG are covalently attached to three separate flow cells of a CM5 sensor chip using amine-coupling chemistry. Briefly; the carboxymethlyladed dextran matrix is activated by injecting 35 ul of a solution containing 0.025M NHS and 0.1M EDC. […] The deactivation of the remaining NHS-ester group is performed by injection of 35 ul of 1M ethanolamine hydrochloride (pH 8.5). The surface of the sensor chip is regenerated by injecting 5 ul 0.1M HCl. […] After each injection the sensor chip surface is regenerated with the injection of 10 ul 0.1M HCl without loss of binding activity on the surface. The kinetic constants, ka and kd and the affinity constants KA and KD are evaluated using the BIAevaluations 3.0 software supplied by the manufacturer.
(§3) Affinity measurement in BIAcore: The kinietc and the affinity binding constants of the mouse 11C7 mAb and the 11C7 derived monovalent Fab fragment to recombinat NogoA are measured in real time using surface plasmon resonance (SPR) technology (Biacore). For this analysis recombinant human, mouse and rat NIGs are coupled on three independent sensor chip surfaces and different concentrations of the antibodies are injected. Kinetic parameters of the binding interactions are derived from the sensorgrams by non-linear curve fitting. […] The lower affinity of the Fab fragment results from a decrease of both kinetic constants, association and dissociation (ka, kd).

rat NiG = biological target: T4, rat NiG (rat, UniProt Q9JK11 174-979); assay: as above
T4 construct: also called recombinant rat NIG
T4 sequence: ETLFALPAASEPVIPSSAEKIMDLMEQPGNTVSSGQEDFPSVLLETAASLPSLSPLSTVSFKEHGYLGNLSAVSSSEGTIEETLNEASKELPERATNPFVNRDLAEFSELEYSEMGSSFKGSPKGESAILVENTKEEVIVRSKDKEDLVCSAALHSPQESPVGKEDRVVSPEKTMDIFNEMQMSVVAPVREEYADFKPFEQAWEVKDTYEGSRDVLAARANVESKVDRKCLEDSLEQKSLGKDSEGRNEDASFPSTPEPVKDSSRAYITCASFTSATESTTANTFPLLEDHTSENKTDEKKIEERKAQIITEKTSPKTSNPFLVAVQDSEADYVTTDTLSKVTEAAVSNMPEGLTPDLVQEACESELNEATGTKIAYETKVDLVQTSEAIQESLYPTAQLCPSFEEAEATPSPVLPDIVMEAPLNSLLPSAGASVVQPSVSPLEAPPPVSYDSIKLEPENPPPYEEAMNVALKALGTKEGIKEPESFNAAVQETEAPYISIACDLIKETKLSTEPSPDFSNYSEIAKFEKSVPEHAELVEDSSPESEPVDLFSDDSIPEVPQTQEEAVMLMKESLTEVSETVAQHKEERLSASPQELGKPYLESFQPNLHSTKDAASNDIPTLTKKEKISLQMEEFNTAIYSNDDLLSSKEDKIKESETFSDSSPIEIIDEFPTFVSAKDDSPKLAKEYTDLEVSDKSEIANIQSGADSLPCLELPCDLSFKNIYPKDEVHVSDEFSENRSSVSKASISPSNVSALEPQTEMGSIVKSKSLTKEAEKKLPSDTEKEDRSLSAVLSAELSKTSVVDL
Protocol: as §2, §3

mouse NiG = biological target: T5, mouse NiG (mouse, UniProt Q99P72 188-974, limits assumed); assay: as above
T5 construct: domain: NiG-exon3; also called mNiG-exon3; mouse NiG-exon3
T5 sequence (looked up): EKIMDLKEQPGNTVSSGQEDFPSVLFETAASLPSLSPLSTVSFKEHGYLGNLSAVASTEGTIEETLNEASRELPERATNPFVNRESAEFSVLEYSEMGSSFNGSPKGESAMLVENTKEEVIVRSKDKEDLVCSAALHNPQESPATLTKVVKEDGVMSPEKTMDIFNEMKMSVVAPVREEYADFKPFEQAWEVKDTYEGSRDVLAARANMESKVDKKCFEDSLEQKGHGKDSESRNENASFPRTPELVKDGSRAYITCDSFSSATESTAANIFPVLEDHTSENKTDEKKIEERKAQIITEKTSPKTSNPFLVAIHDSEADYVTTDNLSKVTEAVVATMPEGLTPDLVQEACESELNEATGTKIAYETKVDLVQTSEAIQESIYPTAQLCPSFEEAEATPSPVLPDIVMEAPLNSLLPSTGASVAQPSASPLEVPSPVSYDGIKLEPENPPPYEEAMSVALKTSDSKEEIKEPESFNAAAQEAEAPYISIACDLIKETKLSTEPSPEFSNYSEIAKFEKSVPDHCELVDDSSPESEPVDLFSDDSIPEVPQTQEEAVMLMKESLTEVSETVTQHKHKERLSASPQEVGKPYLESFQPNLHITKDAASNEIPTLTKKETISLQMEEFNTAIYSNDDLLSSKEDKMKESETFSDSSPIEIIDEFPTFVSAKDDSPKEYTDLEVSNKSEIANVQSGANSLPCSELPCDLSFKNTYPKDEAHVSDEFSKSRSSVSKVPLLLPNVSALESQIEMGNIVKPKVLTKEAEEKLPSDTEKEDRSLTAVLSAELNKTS
Protocol: as §2, §3

rat NogoA-623-640 = biological target: T6, rat NogoA-623-640 (rat); assay: peptide competition of cell surface staining of living rat oligodendrocytes
T6 construct: Free peptide used for preincubation with 11C7; also called immunogenic peptide
T6 peptide: SYDSIKLEPENPPPYEEA
Protocol: Immunocytochemistry: Optic nerve oligodendrocytes are prepared as described (Schwab, Caroni, 1988, Neuron). Three to five day-old cultures grown on poly-L-lysine coated coverslips are washed twice with PBS, fixed in 4% (w/v) paraformaldehyde (PFA), 5% (w/v) sucrose in PBS for 15 min at room temperature (RT) and non-specific binding is blocked with 10% (v/v) FCS. Cells were then incubated with mouse 11C7 (1:100). Secondary antibodies are goat-anti-mouse TRITC (Jackson ImmunoResearch Laboratories). For cell surface staining, two day-old rat optic nerve cultures are incubated with monoclonal antibody in medium for 25 min at RT. Secondary alkaline phosphatase conjugated antibodies (Milan Analytica, Lausanne) are used at 1:7,500 in 0.1 M maleic acid with 1% (w/v) blocking reagent (1 hr). The cultures are washed twice with maleic acid buffer, once with alkaline phosphatase buffer (0.1 M Tris-HCl pH 9.5, 0.1 M NaCl, 5 mM MgCl₂) and the staining is developed for 3 hrs at room temperature with 0.175 mg/ml BCIP (Sigma) and 0.338 mg/ml NBT (Sigma) in alkaline phosphatase buffer.
Cell surface staining is present on all major and small processes and on the cell body. Thus, the Nogo-A specific part of the molecule recognised by mouse 11C7 mAb is exposed to the extracellular space on the plasma membrane of oligodendrocytes.

human NiG [2] = biological target: T3, human NiG; assay: SPR (BIAcore 2000), NiG amine-coupled on CM5 chip, Fab injected
Protocol: as §2, §3

B1: mouse 11C7 mAb (antibody, V domains shown)
VH: EVKLLESGGGLVQPGGSLKLSCVVSGFDFRRNWMSWVRQAPGKGLEWIGEINPDSSKINYTPSLKDKFIISRDNAKNTLYLQVSTVRSEDTALYYCVRPVWMYAMDYWGQGTSVTVSS
VL: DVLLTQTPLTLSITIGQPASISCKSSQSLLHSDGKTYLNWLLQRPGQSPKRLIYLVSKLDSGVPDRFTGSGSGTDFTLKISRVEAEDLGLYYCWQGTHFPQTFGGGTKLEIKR
notes: also called mouse 11C7-IgG1; mAb 11C7
Rat NiG-D6
  binding result: no binding (tested: 0.02 to 2.5 nM)
Nogo-66
  binding result: no binding (tested: 0.02 to 2.5 nM)
Human NiG [1]
  Ka: 9.73e+09 M⁻¹
  Kd: 103 pM
  koff: 4.6e-05 s⁻¹
  kon: 448000 M⁻¹ s⁻¹
Rat NiG
  Ka: 2.25e+09 M⁻¹
  Kd: 444 pM
  koff: 0.000389 s⁻¹
  kon: 876000 M⁻¹ s⁻¹
Mouse NiG
  Ka: 5.2e+09 M⁻¹
  Kd: 192 pM
  koff: 0.000106 s⁻¹
  kon: 552000 M⁻¹ s⁻¹
Rat NogoA-623-640
  binding result: binds

B2: 11C7 Fab (Fab, V domains shown)
VH: B1 VH
VL: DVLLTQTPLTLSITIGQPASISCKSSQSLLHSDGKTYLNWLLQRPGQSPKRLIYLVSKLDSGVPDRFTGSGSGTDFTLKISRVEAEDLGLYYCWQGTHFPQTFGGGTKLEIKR
notes: also called 11C7 derived monovalent Fab fragment; Fab monovalent fragment
Rat NiG-D6
  binding result: no binding (tested: 0.025 to 25 nM)
Nogo-66
  binding result: no binding (tested: 0.025 to 25 nM)
Human NiG [2]
  Ka: 1.4e+08 M⁻¹
  Kd: 7140 pM
  koff: 0.000528 s⁻¹
  kon: 72900 M⁻¹ s⁻¹
